This is an account of results in patent publication US20040143859A1 (SANKYO, published 2004).

The data set concerns the molecule itself. The data set can be described thus: SDS-PAGE, reducing (60 KD) against non-reducing (120 KD). As for the experimental part: The two protein peaks (6 and 7) with OCIF activity were subjected to SDS-polyacrylamide gel electrophoresis under reducing and non-reducing conditions. Briefly, 20 μl of each peak fraction was concentrated under vacuum and dissolved in 1.5 μl of 10 mM Tris-HCl, pH 8, 1 mM EDTA, 2.5% SDS, 0.01% bromophenol blue, and incubated at 37° C. overnight under non-reducing conditions or under reducing conditions (with 5% of 2-mercaptoethanol). Each 1.0 μl of sample was then analyzed by SDS-polyacrylamide gel electrophoresis with a gradient gel of 10-15% acrylamide (Pharmacia Co.) and an electrophoresis-device (Fast System, Pharmacia Co.). The following molecular weight marker proteins were used to calculate molecular weight:phosphorylase b (94 kD), bovine serum albumin (67 kD), ovalbumin (43 kD), carbonic anhydrase (30 kD), trypsin inhibitor (20.0 kD), and lactalbumin (14.4 kD). After electrophoresis, protein bands were visualized by silver stain using Phast Silver Stain Kit.

B1: osteoclastogenesis inhibitory factor (OCIF), natural, purified from conditioned medium of human fibroblast IMR-90 (other)
chain: ETFPPKYLHYDEETSHQLLCDKCPPGTYLKQHCTAKWKTVCAPCPDHYYTDSWHTSDECLYCSPVCKELQYVKQECNRTHNRVCECKEGRYLEIEFCLKHRSCPPGFGVVQAGTPERNTVCKRCPDGFFSNETSSKAPCRKHTNCSVFGLLLTQKGNATHDNICSGNSESTQKCGIDVTLCEEAFFRFAVPTKFTPNWLSVLVDNLPGTKVNAESVERIKRQHSSQEQTFQLLKLWKHQNKDQDIVKKIIQDIDLCENSVQRHIGHANLTFEQLRSLMESLPGKKVGAEDIEKTIKACKPSDQILKLLSLWRIKNGDQDTLKGLMHALKHSKTYHFPKTVTQSLKKTIRFLHSFTMYKLYQKLFLEMIGNQVQSVKISCL
modifications: N-terminus blocked (the filing says the N-terminal residue may be converted to pyroglutamine); N-linked sugar chains
notes: Secreted glycoprotein found as a 60 kD monomer and a 120 kD homodimer; also called nOCIF; natural OCIF
Take B1: the binding result is reported as “binds”.
